From patent publication US20170307612

Tests used:
[1] = system: hemagglutinin of highly pathogenic influenza virus H5N6
[2] = system: hemagglutinin of lowly pathogenic influenza virus H7N7
[3] = system: hemagglutinin of lowly pathogenic influenza virus H3N2 (Experimental Example 4)
[4] = system: hemagglutinin of lowly pathogenic influenza virus H9N2_01
[5] = system: hemagglutinin of lowly pathogenic influenza virus H2N4
[6] = system: hemagglutinin of highly pathogenic influenza virus H5N1_02
[7] = system: hemagglutinin of lowly pathogenic influenza virus H1N1_02
[8] = system: hemagglutinin of lowly pathogenic influenza virus H3N8
[9] = system: hemagglutinin of highly pathogenic influenza virus H5N1_01
[10] = system: hemagglutinin of lowly pathogenic influenza virus H9N2_02
[11] = system: hemagglutinin of lowly pathogenic influenza virus H9N2 (Experimental Example 4)
[12] = system: hemagglutinin of lowly pathogenic influenza virus H1N1 (Experimental Example 4)
[13] = system: hemagglutinin of lowly pathogenic influenza virus H1N1_01
[14] = system: hemagglutinin of lowly pathogenic influenza virus H2N1
[15] = system: hemagglutinin of lowly pathogenic influenza virus H7N9

Substance: trypsin
- fluorescence intensity of probe of Preparation Example 1, trypsin only, pH 5.5 [1]: 2740
- fluorescence intensity of probe of Preparation Example 2, trypsin only, pH 5.5 [1]: 2760
- fluorescence intensity of probe of Preparation Example 3, trypsin only, pH 5.5 [1]: 2030
- fluorescence intensity of probe of Preparation Example 1, trypsin only, pH 5.5 [2]: 2600
- fluorescence intensity of probe of Preparation Example 2, trypsin only, pH 5.5 [2]: 2070
- fluorescence intensity of probe of Preparation Example 3, trypsin only, pH 5.5 [2]: 2510
- fluorescence intensity of probe of Example 4-1, trypsin only, pH 5.5 [3]: 19,192
- fluorescence intensity of probe of Example 4-2, trypsin only, pH 5.5 [3]: 16,812
- fluorescence intensity of probe of Example 4-3, trypsin only, pH 5.5 [3]: 16,362
- fluorescence intensity of probe of Preparation Example 1, trypsin only, pH 5.5 [4]: 3750
- fluorescence intensity of probe of Preparation Example 2, trypsin only, pH 5.5 [4]: 4580
- fluorescence intensity of probe of Preparation Example 3, trypsin only, pH 5.5 [4]: 3510
- fluorescence intensity of probe of Preparation Example 1, trypsin only, pH 5.5 [5]: 4020
- fluorescence intensity of probe of Preparation Example 2, trypsin only, pH 5.5 [5]: 3090
- fluorescence intensity of probe of Preparation Example 3, trypsin only, pH 5.5 [5]: 3460
- fluorescence intensity of probe of Preparation Example 1, trypsin only, pH 5.5 [6]: 2960
- fluorescence intensity of probe of Preparation Example 2, trypsin only, pH 5.5 [6]: 4540
- fluorescence intensity of probe of Preparation Example 3, trypsin only, pH 5.5 [6]: 4360
- fluorescence intensity of probe of Preparation Example 1, trypsin only, pH 5.5 [7]: 4550
- fluorescence intensity of probe of Preparation Example 2, trypsin only, pH 5.5 [7]: 4720
- fluorescence intensity of probe of Preparation Example 3, trypsin only, pH 5.5 [7]: 3150
- fluorescence intensity of probe of Preparation Example 1, trypsin only, pH 5.5 [8]: 3600
- fluorescence intensity of probe of Preparation Example 2, trypsin only, pH 5.5 [8]: 4070
- fluorescence intensity of probe of Preparation Example 3, trypsin only, pH 5.5 [8]: 3400
- fluorescence intensity of probe of Preparation Example 1, trypsin only, pH 5.5 [9]: 2950
- fluorescence intensity of probe of Preparation Example 2, trypsin only, pH 5.5 [9]: 4000
- fluorescence intensity of probe of Preparation Example 3, trypsin only, pH 5.5 [9]: 3410
- fluorescence intensity of probe of Preparation Example 1, trypsin only, pH 5.5 [10]: 3280
- fluorescence intensity of probe of Preparation Example 2, trypsin only, pH 5.5 [10]: 4720
- fluorescence intensity of probe of Preparation Example 3, trypsin only, pH 5.5 [10]: 3730
- fluorescence intensity of probe of Example 4-1, trypsin only, pH 5.5 [11]: 18,345
- fluorescence intensity of probe of Example 4-2, trypsin only, pH 5.5 [11]: 18,950
- fluorescence intensity of probe of Example 4-3, trypsin only, pH 5.5 [11]: 18,035
- fluorescence intensity of probe of Example 4-1, trypsin only, pH 5.5 [12]: 17,689
- fluorescence intensity of probe of Example 4-2, trypsin only, pH 5.5 [12]: 17,581
- fluorescence intensity of probe of Example 4-3, trypsin only, pH 5.5 [12]: 15,674
- fluorescence intensity of probe of Preparation Example 1, trypsin only, pH 5.5 [13]: 3350
- fluorescence intensity of probe of Preparation Example 2, trypsin only, pH 5.5 [13]: 4020
- fluorescence intensity of probe of Preparation Example 3, trypsin only, pH 5.5 [13]: 3720
- fluorescence intensity of probe of Preparation Example 1, trypsin only, pH 5.5 [14]: 2210
- fluorescence intensity of probe of Preparation Example 2, trypsin only, pH 5.5 [14]: 2120
- fluorescence intensity of probe of Preparation Example 3, trypsin only, pH 5.5 [14]: 2060
- fluorescence intensity of probe of Preparation Example 1, trypsin only, pH 5.5 [15]: 3990
- fluorescence intensity of probe of Preparation Example 2, trypsin only, pH 5.5 [15]: 4600
- fluorescence intensity of probe of Preparation Example 3, trypsin only, pH 5.5 [15]: 3250

Substance: furin
- fluorescence intensity of probe of Preparation Example 1, furin only, pH 5.5 [1]: 2420
- fluorescence intensity of probe of Preparation Example 2, furin only, pH 5.5 [1]: 2720
- fluorescence intensity of probe of Preparation Example 3, furin only, pH 5.5 [1]: 2250
- fluorescence intensity of probe of Preparation Example 1, furin only, pH 5.5 [2]: 432
- fluorescence intensity of probe of Preparation Example 2, furin only, pH 5.5 [2]: 401
- fluorescence intensity of probe of Preparation Example 3, furin only, pH 5.5 [2]: 575
- fluorescence intensity of probe of Example 4-1, furin only, pH 5.5 [3]: 4,697
- fluorescence intensity of probe of Example 4-2, furin only, pH 5.5 [3]: 4,953
- fluorescence intensity of probe of Example 4-3, furin only, pH 5.5 [3]: 1,731
- fluorescence intensity of probe of Preparation Example 1, furin only, pH 5.5 [4]: 353
- fluorescence intensity of probe of Preparation Example 2, furin only, pH 5.5 [4]: 443
- fluorescence intensity of probe of Preparation Example 3, furin only, pH 5.5 [4]: 461
- fluorescence intensity of probe of Preparation Example 1, furin only, pH 5.5 [5]: 426
- fluorescence intensity of probe of Preparation Example 2, furin only, pH 5.5 [5]: 347
- fluorescence intensity of probe of Preparation Example 3, furin only, pH 5.5 [5]: 477
- fluorescence intensity of probe of Preparation Example 1, furin only, pH 5.5 [6]: 2130
- fluorescence intensity of probe of Preparation Example 2, furin only, pH 5.5 [6]: 4840
- fluorescence intensity of probe of Preparation Example 3, furin only, pH 5.5 [6]: 5000
- fluorescence intensity of probe of Preparation Example 1, furin only, pH 5.5 [7]: 594
- fluorescence intensity of probe of Preparation Example 2, furin only, pH 5.5 [7]: 364
- fluorescence intensity of probe of Preparation Example 3, furin only, pH 5.5 [7]: 490
- fluorescence intensity of probe of Preparation Example 1, furin only, pH 5.5 [8]: 399
- fluorescence intensity of probe of Preparation Example 2, furin only, pH 5.5 [8]: 442
- fluorescence intensity of probe of Preparation Example 3, furin only, pH 5.5 [8]: 313
- fluorescence intensity of probe of Preparation Example 1, furin only, pH 5.5 [9]: 2840
- fluorescence intensity of probe of Preparation Example 2, furin only, pH 5.5 [9]: 4680
- fluorescence intensity of probe of Preparation Example 3, furin only, pH 5.5 [9]: 4330
- fluorescence intensity of probe of Preparation Example 1, furin only, pH 5.5 [10]: 418
- fluorescence intensity of probe of Preparation Example 2, furin only, pH 5.5 [10]: 571
- fluorescence intensity of probe of Preparation Example 3, furin only, pH 5.5 [10]: 306
- fluorescence intensity of probe of Example 4-1, furin only, pH 5.5 [11]: 3,134
- fluorescence intensity of probe of Example 4-2, furin only, pH 5.5 [11]: 3,703
- fluorescence intensity of probe of Example 4-3, furin only, pH 5.5 [11]: 4,218
- fluorescence intensity of probe of Example 4-1, furin only, pH 5.5 [12]: 3,721
- fluorescence intensity of probe of Example 4-2, furin only, pH 5.5 [12]: 3,955
- fluorescence intensity of probe of Example 4-3, furin only, pH 5.5 [12]: 4,344
- fluorescence intensity of probe of Preparation Example 1, furin only, pH 5.5 [13]: 492
- fluorescence intensity of probe of Preparation Example 2, furin only, pH 5.5 [13]: 374
- fluorescence intensity of probe of Preparation Example 3, furin only, pH 5.5 [13]: 327
- fluorescence intensity of probe of Preparation Example 1, furin only, pH 5.5 [14]: 371
- fluorescence intensity of probe of Preparation Example 2, furin only, pH 5.5 [14]: 333
- fluorescence intensity of probe of Preparation Example 3, furin only, pH 5.5 [14]: 569
- fluorescence intensity of probe of Preparation Example 1, furin only, pH 5.5 [15]: 545
- fluorescence intensity of probe of Preparation Example 2, furin only, pH 5.5 [15]: 461
- fluorescence intensity of probe of Preparation Example 3, furin only, pH 5.5 [15]: 528
